Assay results taken from paper PMC3882236, “A Neutralization Epitope in the Hepatitis C Virus E2 Glycoprotein Interacts with Host Entry Factor CD81” (PLoS ONE, 2014).

Tests used:
Assay in all cases: luciferase-based plate binding assay; supernatant (100 uL/well) with E2-16Fc or a mutant form held on protein A-coated 96-well plates, room temperature, 1 h; PBS-T wash; CD81-Luc supernatant (2.5x10^6 units of luciferase activity in 30 uL) added for 1 h, with or without 1H8 (10 or 50 ug/reaction); PBS-T rinse; bound luciferase activity read
Conditions in all cases: partners not purified
[1] = target: T1, E2-16Fc T526A (Hepatitis C virus genotype 1a, H77 …, UniProt P27958 384-661, T526A)
T1 construct: HCV envelope glycoprotein E2, residues 384-661, HCV genotype 1a H77 strain, single site mutant of E2-16Fc; Same construct as m1 with one substitution; source: Huh7, transiently transfected, secreted into the cell culture medium (supernatant)

[2] = target: T2, E2-16Fc Y527A (Hepatitis C virus genotype 1a, H77 …, UniProt P27958 384-661, Y527A)
T2 construct: HCV envelope glycoprotein E2, residues 384-661, HCV genotype 1a H77 strain, single site mutant of E2-16Fc; Same construct as m1 with one substitution; source: Huh7, transiently transfected, secreted into the cell culture medium (supernatant)

[3] = target: T3, E2-16Fc W529A (Hepatitis C virus genotype 1a, H77 …, UniProt P27958 384-661, W529A)
T3 construct: HCV envelope glycoprotein E2, residues 384-661, HCV genotype 1a H77 strain, single site mutant of E2-16Fc; Same construct as m1 with one substitution; source: Huh7, transiently transfected, secreted into the cell culture medium (supernatant)

B1: CD81-Luc (large extracellular domain of human CD81, residues 113-201, fused with gaussia luciferase) (domain or fragment, UniProt P60033 113-201, looked up)
chain: FVNKDQIAKDVKQFYDQALQQAVVDDDANNAKAVVKTFHETLDCCGSSTLTALTTSVLKNNLCPSGSNIISNLFKEDCHQKIDDLFSGK
notes: human CD81, large extracellular domain, residues 113-201; source: Huh7, transiently transfected, secreted into the cell culture medium (supernatant)
- percent reduction of binding compared to the wild-type E2-16Fc [1]: 83.1%
- percent reduction of binding compared to the wild-type E2-16Fc [2]: 98.4%
- percent reduction of binding compared to the wild-type E2-16Fc [3]: 99.2%
